Results taken from IntAct's records for PubMed 18469807.

How the values were obtained:
unc5b_human UNC5B [1] = target: unc5b_human UNC5B (UniProt Q8IZJ1)
unc5b_human UNC5B [2] = target: unc5b_human UNC5B (UniProt Q8IZJ1); remark: listed apart in the source

unc5b_human UNC5B, sequence (Q8IZJ1 whole entry): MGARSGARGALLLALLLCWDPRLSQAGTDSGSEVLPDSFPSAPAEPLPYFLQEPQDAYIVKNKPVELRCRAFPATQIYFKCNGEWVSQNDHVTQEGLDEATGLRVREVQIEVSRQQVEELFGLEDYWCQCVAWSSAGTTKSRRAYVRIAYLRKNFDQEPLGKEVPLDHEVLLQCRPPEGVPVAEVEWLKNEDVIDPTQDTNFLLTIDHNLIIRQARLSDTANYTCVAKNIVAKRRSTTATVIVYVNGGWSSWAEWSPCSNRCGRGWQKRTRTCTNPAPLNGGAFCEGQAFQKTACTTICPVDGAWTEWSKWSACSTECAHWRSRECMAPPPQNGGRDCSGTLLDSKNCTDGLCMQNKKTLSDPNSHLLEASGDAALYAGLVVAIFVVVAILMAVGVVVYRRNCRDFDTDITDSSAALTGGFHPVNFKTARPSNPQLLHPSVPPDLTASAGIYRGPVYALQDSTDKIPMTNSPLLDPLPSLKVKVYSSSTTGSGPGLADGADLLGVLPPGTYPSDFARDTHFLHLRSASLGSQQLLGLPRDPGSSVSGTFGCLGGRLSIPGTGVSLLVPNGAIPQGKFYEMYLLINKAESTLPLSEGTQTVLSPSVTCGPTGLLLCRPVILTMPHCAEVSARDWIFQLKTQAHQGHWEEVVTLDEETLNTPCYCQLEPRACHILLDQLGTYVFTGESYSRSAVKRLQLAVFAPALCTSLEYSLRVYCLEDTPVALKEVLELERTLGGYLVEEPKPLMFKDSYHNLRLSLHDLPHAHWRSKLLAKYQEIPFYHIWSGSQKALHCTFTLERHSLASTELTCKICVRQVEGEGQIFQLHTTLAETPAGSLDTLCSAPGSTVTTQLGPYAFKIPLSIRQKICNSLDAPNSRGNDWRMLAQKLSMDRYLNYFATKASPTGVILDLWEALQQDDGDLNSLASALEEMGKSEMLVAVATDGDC

effect of a mutation on the interaction (unc5b_human UNC5B [1]) | effect of a mutation on the interaction (unc5b_human UNC5B [2]) | Substance
disrupting interaction | – | Arf-GAP with GTPase, ANK repeat and PH domain-containing protein 2 (Rattus norvegicus (Rat)), Q8CGU4 K413A;S414N
– | disrupting interaction | Arf-GAP with GTPase, ANK repeat and PH domain-containing protein 2 (Rattus norvegicus (Rat)), Q8CGU4 Y1032F
– | disrupting interaction | Arf-GAP with GTPase, ANK repeat and PH domain-containing protein 2 (Rattus norvegicus (Rat)), Q8CGU4 Y1032F;Y1124F
– | disrupting interaction | Arf-GAP with GTPase, ANK repeat and PH domain-containing protein 2 (Rattus norvegicus (Rat)), Q8CGU4 Y1124F
